Data reported in publication PMC12607152.

How the values were obtained:
[1] = target: T1, CcpA (catabolite control protein A) (Staphylococcus aureus (XN108?)) (UniProt P99175); assay: EMSA; conditions: not given in the material; EMSA as previously described (ref 22)
T1 sequence: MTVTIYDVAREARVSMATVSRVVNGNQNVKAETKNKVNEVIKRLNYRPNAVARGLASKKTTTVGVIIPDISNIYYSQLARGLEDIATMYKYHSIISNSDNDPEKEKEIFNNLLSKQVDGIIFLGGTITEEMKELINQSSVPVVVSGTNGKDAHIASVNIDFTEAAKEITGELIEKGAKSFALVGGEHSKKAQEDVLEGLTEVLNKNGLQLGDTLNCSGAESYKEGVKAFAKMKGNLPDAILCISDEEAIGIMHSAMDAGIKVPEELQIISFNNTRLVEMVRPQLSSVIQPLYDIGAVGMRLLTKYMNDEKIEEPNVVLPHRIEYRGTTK

[2] = target: T1, CcpA (catabolite control protein A) (Staphylococcus aureus (XN108?)); assay: competition; conditions: not given in the material; EMSA as previously described (ref 22)

| Sequence | binding [1] | binding [2] |
| --- | --- | --- |
| CAGTCCTCAACTCTTTTAATGTTTTCATGTTGTCACCGCCTTTCGTAAACCTAATATAATACGAAATTTTCGTATTGTCAACATTAAATACGTTTTTTTCGTAAAAAACTTTACTATGATATGAAAATTTCGTATAATAAGAAAAAAGGAGGTAAGTAAT (double strand) [PcI probe (160-bp region upstream of cI)] | binds |  |
| CAGTCCTCAACTCTTTTAATGTTTTCATGTTGTCACCGCCTTTCGTAAACCTAATATAATACGAAATTTTCGTATTGTCAACATTAAATACGTTTTTTTCGTAAAAAACTTTACTATGATATGAAAATTTCGTATAATAAGAAAAAAGGAGGTAAGTAAT (double strand) [PcI unlabeled competitor] |  | binds |
